Test results from the nanobody polyreactivity screen of Harvey et al. (2022).

Assay: yeast display, Sf9 membrane polyspecificity reagent, FACS + sequencing; frameworks hold sequencing errors
Outline: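 In a synthetic yeast display library (Saccharomyces cerevisiae BJ5465), nanobody expression was induced with galactose for 36–48 hours. FACS gates were set low and high (top ~1%) using anti-HA fluorescence for expression and streptavidin fluorescence for binding of the Sf9 membrane reagent. Each polyreactivity label is drawn from the gate of origin.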

QVQLVESGGGLVQAGGSLRLSCGASGRFFDDYAVGWYRQAPGKEREFVAAISRSGASTYYADSVKGRFTISRDNAKNTVYLQMNSLKPEDTAVYYCAARAGANYRMDYWGQGTQVTVSS
polyreactivity (PSR sort gate): high polyreactivity

QVQLVESGGGLVQAGGSLRLSCGASGRIFRGYTMGWYRQAPGKERELVAAINRSGGNTYYADSVKGRFTISRDNAKNTVYLQLNSLKPEDTAVYYCAAGARGYGWRGDYWGQGTQVTVSS
polyreactivity (PSR sort gate): low polyreactivity

QVQLVESGGGLVQAGGSLRLSCGASGRIFYSNAMGWYRQAPGTERELVAAITGSGGRTHYADSVKGRFTISRDNAKNTVYLQMNSLKPEDTAVYYCAKDGYFPEFDYWGQGTQVTVSS
polyreactivity (PSR sort gate): high polyreactivity

QVQLVESGGGLVQAGGSLRLSCGASGSIFVNKAMGWYRPAPGKERELVAAISSRSSRTFYADSVKGRFTISRDHAKNTVYLKMNILKPEDTEVYSCAVKKRAPDGDYWGQGTQVTVSS
polyreactivity (PSR sort gate): high polyreactivity

QVQLVESGGGLVQAGGSLRLSCGASGSTFVAYDMGWYRQGPGKERELVAAISWSDATTYYADSVKGRFTISRDNAKNTVYLLMNSLNPEDTAVYYCAATRDTNNMDYWGQGTQVTVSS
polyreactivity (PSR sort gate): low polyreactivity

QVQLVESGGGLVQAGGSLRLSCGASGYIFGYYAMGWYRQAPRKERDLVAAISSSGGSTYYADSVKGRFTISRDHAKNTVYLQMNSLKPEDTAVYYCAAYRWGTHDRLDYWGQGTQVTVSS
polyreactivity (PSR sort gate): high polyreactivity

QVQLVESGGGLVQAGGSLRLSCPAPGRIFDRNAMGRYRQAPGKERELVAAISGSGGRTYYADSVKGRFTISRDNAKNTVYLQMNSLKPEDTAVYYCAASRKYGYGDWGQGTQVTVSS
polyreactivity (PSR sort gate): high polyreactivity

QVQLVESGGGLVQAGGSLRLSCPASASIFLSNMGWYRQAPGKERELVAAITIGGSTDYADSVKGRFTISRDNAKNTVYLQMNSLKPEDTAVYYCNADNPYSDGADSLGNYWGQGTQVTVSS
polyreactivity (PSR sort gate): low polyreactivity

QVQLVESGGGLVQAGGSLRLSCPASGFIFQHYAMGWYRQAPGKERELVAAIDFTDGSTYYADSVKGRFTISRDNAKNTVYLQMNSLKPEDTAVYYCNALDYLYGGIYLDEDYWGQGTQVTVSS
polyreactivity (PSR sort gate): low polyreactivity

QVQLVESGGGLVQAGGSLRLSCPASGFIFWYNVMGWSRQAPGKERELVAAISGRGGSTYYADSVKGRFTISRDNAKNTVYLQMNSLKPEDTAVYYCNTFSYRSGAYGYWGQGTQVTVSS
polyreactivity (PSR sort gate): high polyreactivity

QVQLVESGGGLVQAGGSLRLSCPASGFTFDVNAMGSYRQAPGKERELVATISSNGGSTYYADSVKGRFTISRDNAKNTVYLQMNSLKPEDTAVYYCNRGEIYFDNDDFDYWGQGTQVTVSS
polyreactivity (PSR sort gate): low polyreactivity

QVQLVESGGGLVQAGGSLRLSCPASGFTFYYYAMGWYRQAPGKERELVAAISYSGGSTYYADSVKGRFTISRDNAKNTVYLQMNRLKPEDTAVYYCAADLSTYRRGFDYWGQGTQVTVSS
polyreactivity (PSR sort gate): high polyreactivity

QVQLVESGGGLVQAGGSLRLSCPASGGIFGRYAMGWYRQAPGKERELVAAISSSGGRTYYADSVKGRFTISRDNAKNTVYLQMNSLKPEDTAVYYCNADRHSTYGYWGQGTQVTVSS
polyreactivity (PSR sort gate): high polyreactivity

QVQLVESGGGLVQAGGSLRLSCPASGIIFSTYAMGWYRQAPGKERELVATITSSGSNTYYADSVKGRFTISRDNAKNTVYLQMNSLKPEDTAVYYCATYSFFWWQYDYWGQGSQVTVSS
polyreactivity (PSR sort gate): high polyreactivity

QVQLVESGGGLVQAGGSLRLSCPASGLIYYRYVMGWYRQAPGKERELVAAISGNGASTYYADSVKGRFTISRDNAKNTVFLQMNSLKPVDTAVYYCNADVYVSSKTHSSYPQWWGYDYWGQGTQVTVSS
polyreactivity (PSR sort gate): low polyreactivity

QVQLVESGGGLVQAGGSLRLSCPASGRIFGVYAMGWYRQAPGKESELVAAIRYRGGSTYYADSVKGRFTISRDNAKNSVYLQMNSLIPEDTAVYYCAAEVWGVGYYAPYGYWGQGTQVTVSS
polyreactivity (PSR sort gate): high polyreactivity

QVQLVESGGGLVQAGGSLRLSCPASGRIFGYNSMGWYRQAPGKEREMVATMSSGGGSNYADSVKGRFTISRDNAKNTVYLQMKSLKPEDTAVFYCAADLFLDGSSLYAPNWWPDGWNTYRVLGGYWGQGTQVTVSS
polyreactivity (PSR sort gate): low polyreactivity

QVQLVESGGGLVQAGGSLRLSCPASGRIFRYYPMGWYRQAPGKEREFVAGITWSGGRTYYADSVKGRFTISRDNAKNTVFVQMNSLKPEDTAVYYCNADAGTRVGWWDDYDYWGQGTQVTVSS
polyreactivity (PSR sort gate): low polyreactivity

QVQLVESGGGLVQAGGSLRLSCPASGRIFYRYAMGWYRQEPGKERELVADITWRGGRTYYADSVKGRFTISRDNAKNTVYLQMNSLKPEDTAVYYCAATGGFSWSRDYWGQGTQVTVSS
polyreactivity (PSR sort gate): low polyreactivity

QVQLVESGGGLVQAGGSLRLSCPASGSIIIRNAMGWYRQAPGKERELVAAISIGDGSTYADSVKGRFTISRDNAKNTVYLQMNSLKPEDTAVYYCAADRYGFYLESYYWGQGTQVTVSS
polyreactivity (PSR sort gate): low polyreactivity

QVQLVESGGGLVQAGGSLRLSCPASGSIIYYAMGWSRQPPGKEREFVAAITKSGGSTYYADSVKGRFTFSRDNAKNTVYLQMNSLKPEDTAVYYCSARGTWAGFYYWGQGTQVTVSS
polyreactivity (PSR sort gate): high polyreactivity

QVQLVESGGGLVQAGGSLRLSCPASGSIYGLYSMGWYRQAPGKERELVAVITYSVGTTYYADSVKGRFTISRDNAKNTVYLQMNSLKPEDTAVYYCAADLYWYYPWSAYYGEYDYWGQGTQVTVSS
polyreactivity (PSR sort gate): low polyreactivity

QVQLVESGGGLVQAGGSLRLSCPASGSNLYPYAMGSSTQPPATEREMVATISYSVVSTYYAESVKGRFTISRDNAKNTVYLQMNSLKPEDTAVYYCADKSRSSKYVYWGQGTQVSVSS
polyreactivity (PSR sort gate): high polyreactivity

QVQLVESGGGLVQAGGSLRLSCPASGSTFAIYGMGWYRQAPGKERELVAGITRGGSTNYADSVKGRFTISRDNAKNTVYLQMNILKPEDTAVYYCNSPLGVRRFKSKGRSHYEYWGQGTQVSVSS
polyreactivity (PSR sort gate): high polyreactivity

QVQLVESGGGLVQAGGSLRLSCPASGSTFGPYAMGWYRQAPGKERELVATISGSGSSTYYADSVKGRFTISRDNAKNTVDLQMNSLKPEDTAFYYCATDLYFDLRYDYWGQGTQVTVSS
polyreactivity (PSR sort gate): low polyreactivity

QVQLVESGGGLVQAGGSLRLSCPASGSTFYEYAMGWYRQEPGKERELVAAITSGGSTYYADSVKGRFTISRDNAKYTVYLQLNSQKPEDTAVYYCAADPRIRRGDRSTHGYDYWGQGTQVTVSS
polyreactivity (PSR sort gate): low polyreactivity

QVQLVESGGGLVQAGGSLRLSCPASGTLTVNTMGWYRQAPGKERELVAAISTGDTTTYADSVKGRFTISRDNAKNTVYVQMNSLKPEDTAVYYCNVDIGVYAYESDYWGQGSQVTVSS
polyreactivity (PSR sort gate): low polyreactivity

QVQLVESGGGLVQAGGSLRLSCPDSAFTFSLYGMGWYRQAPGKEREMVAAIRSGGSTNYADSVKGRFTISRDNAKNTVYLQMNSVKPEDTAVYVCATDIHSVHNNRDKHDYDYWGQGTQVTVSS
polyreactivity (PSR sort gate): low polyreactivity

QVQLVESGGGLVQAGGSLRLSCSACGGIFDWYAMGWYRQAPGKERELVAAIDFSGDSTYYADSVKGRFTISRDNAKNTVYLQMNSLKPEDTAVYYCAAETNTWYLFDYWGQGTQVTVSS
polyreactivity (PSR sort gate): high polyreactivity

QVQLVESGGGLVQAGGSLRLSCSASGFIFFRYSMGWYIQAPGKERELVAAINSSGDSTYADSVKGRFTISRDNAKNTFYLQMNSLKPEDTAVYYCATGGRTEIWYPTLDYWGQGTQVTVSS
polyreactivity (PSR sort gate): low polyreactivity

QVQLVESGGGLVQAGGSLRLSCSASGFIFQGYAMGWDRQAPGKERELVATITTSSRTYYADSVKGRFTISRDNAKNTVYLQMYSLKPEDTAVYYCATRGSYRSQRWYGYWGQGTQVTVSS
polyreactivity (PSR sort gate): high polyreactivity

QVQLVESGGGLVQAGGSLRLSCSASGFIFYKNAMGWYRQAPGKERELVAAISGGGGSTYYADSVKGRFTISRDNAKNTVYLQMNSLKPDDTAVYYCATYSFRRTGWRYDYWGQGSQVTVSS
polyreactivity (PSR sort gate): high polyreactivity

QVQLVESGGGLVQAGGSLRLSCSASGFNFRRYAMGLYRQAPGKERELVAVITSGGSTYYADSVKGRFTISRDNAKNTVYLQMNSLKTEDTAVYYCAARYYWYSQEYVLSSWWGDYCGQGTQVTVSS
polyreactivity (PSR sort gate): high polyreactivity

QVQLVESGGGLVQAGGSLRLSCSASGIIFYFYAMGWYRQAPGKERELVAAISDDGVSTDYADSVKGRFTISRDNAKNTVYLQMNSLKPEDTAVFYCNARYSGYLRLDYWGQGTQVTVSS
polyreactivity (PSR sort gate): low polyreactivity

QVQLVESGGGLVQAGGSLRLSCSASGITFKLNSMGWYRQAPGKERELVAAITSTGGSTYYADSVKGRFTISRDNAKNTVYLQMNSLKPEDTAVYYCATDILIDGFYSDYWGQGTQVTVSS
polyreactivity (PSR sort gate): high polyreactivity

QVQLVESGGGLVQAGGSLRLSCSASGITFLHYAMGWYIQAPGKERELVARITYSGSSTYYADSVKGRFTISRDNAKNTVYLQMNSLKPEDTAVYYCNASASWGRWSRTGTPRYYYWGQGTQVTVSS
polyreactivity (PSR sort gate): high polyreactivity

QVQLVESGGGLVQAGGSLRLSCSASGLTFYSYTKGWYRQAPGKERELVAAISYSGGNTYYADSVKGRFTISRDNAKNTVYLQMNSLKQEDTAVYYCNAYFRWYWLIEYDYWGQGTQVTVSS
polyreactivity (PSR sort gate): high polyreactivity

QVQLVESGGGLVQAGGSLRLSCSASGNIIRKYAMGWYRQAPGKEREFVAAISSSGGRTYYADSVKGRFTISRDNAKNTVYLQMNSLKPEDTAVYYCAKDPYGRLQPRPRFGYWGQGTQVTVSS
polyreactivity (PSR sort gate): high polyreactivity

QVQLVESGGGLVQAGGSLRLSCSASGNNFESYGMGWYRQAPGKERELVATINTSSGSTNYADSVKGRFTISRDNAKNTVYVQMNSLKPEDTAVYYCAAVFVEQGEDDYWGQGTQVTVSS
polyreactivity (PSR sort gate): low polyreactivity

QVQLVESGGGLVQAGGSLRLSCSASGRIFFSYAMGWYRQAPGKERELVAAISRDGGTPYYADSVKGRFTISRDNAKNTVSLLLNSLKPEDTAVYYCADDWYLRRRIYGYWGQGTEVTVSS
polyreactivity (PSR sort gate): high polyreactivity

QVQLVESGGGLVQAGGSLRLSCSASGRIFKRYAMGWYRQSPGKERELVAAFTRGGSTNYADSVKGRFTISRDNAKNTVYLQMNSLKPEDTAVYYCNRYGGTRYWGRGTQVTVSS
polyreactivity (PSR sort gate): high polyreactivity

QVQLVESGGGLVQAGGSLRLSCSASGRIFPRYAMGWYIQEPGKEMELFATISSGGSTYYADSVKGRFTITRDNAKNTVYLQMNSLKPEDTADYYCADRKGQYTVINGMDYWGQGTQVTVSS
polyreactivity (PSR sort gate): low polyreactivity

QVQLVESGGGLVQAGGSLRLSCSASGRIFRINAMGWYRQAPGKDRELVASISRRGGNTYYADSVKGRFTISRDNAKNTVYLQMNSLKPEDTAVYYCAADVHTPALYTYAAGDYWGQGTQVTVSS
polyreactivity (PSR sort gate): low polyreactivity
